Columns and labels:
[1] = target: T1, human FcγRIIb extracellular domain, His-tagged (human, UniProt P31994 43-217); test: SPR (BIACORE), antibody captured on chip, soluble FcgR as analyte, 25 C
T1 construct: also called human FcgRIIb; not shown: His-tag added to the C-terminus
T1 sequence: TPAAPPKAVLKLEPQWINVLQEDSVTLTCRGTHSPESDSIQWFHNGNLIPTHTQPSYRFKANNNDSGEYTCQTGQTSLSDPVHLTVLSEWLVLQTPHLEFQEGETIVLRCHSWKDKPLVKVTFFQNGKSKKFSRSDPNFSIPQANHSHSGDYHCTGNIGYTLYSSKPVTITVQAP
Description: (§1) The kinetic analysis of interactions between these antibodies and FcγR was carried out using BIACORE® T200 or BIACORE® 4000 (GE Healthcare). HBS-EP+ (GE Healthcare) was used as the running buffer, and the measurement temperature was set to 25° C. […] After the measurement, the antibody captured on the chip was washed off by allowing reaction with 10 mM glycine-HCl, pH1.5 and 25 mM NaOH so that the chip was regenerated and used repeatedly. The sensorgrams obtained as measurement results were analyzed by the 1:1 Langmuir binding model using the BIACORE® Evaluation Software to calculate the binding rate constant ka (L/mol/s) and dissociation rate constant kd (1/s), and the dissociation constant KD (mol/L) was calculated from these values. […] Regarding such interactions, KD values were calculated using the following 1:1 binding model described in BIACORE® T100 Software Handbook BR1006-48 Edition AE.

[2] = target: T2, cynomolgus monkey FcγRIIIaS extracellular domain, His-tagged (cynomolgus monkey, UniProt A3RFZ7 21-206 (rhesus entry)); test: as above
T2 construct: also called cyno FcgRIIIaS; cynoFcγRIIIaS; not shown: His-tag added to the C-terminus
T2 sequence (A3RFZ7 21-206): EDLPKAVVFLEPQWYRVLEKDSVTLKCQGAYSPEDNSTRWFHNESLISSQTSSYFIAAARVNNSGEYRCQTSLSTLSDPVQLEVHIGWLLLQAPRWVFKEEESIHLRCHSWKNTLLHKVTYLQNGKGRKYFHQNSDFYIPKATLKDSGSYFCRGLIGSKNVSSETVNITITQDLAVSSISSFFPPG
Description: as §1

[3] = target: T3, cynomolgus monkey FcγRIIa3 extracellular domain, His-tagged (cynomolgus monkey); test: as above
T3 construct: also called cyno FcgRIIa3; cynoFcγRIIa3; not shown: His-tag added to the C-terminus
T3 chain: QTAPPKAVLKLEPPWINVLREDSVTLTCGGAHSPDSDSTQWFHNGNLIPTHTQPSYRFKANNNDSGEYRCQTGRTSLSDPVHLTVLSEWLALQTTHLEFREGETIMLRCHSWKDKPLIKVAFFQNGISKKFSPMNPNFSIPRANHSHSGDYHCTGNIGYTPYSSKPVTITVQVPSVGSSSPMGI
Description: as §1

[4] = target: T4, human FcγRIIaR extracellular domain with C-terminal His-tag (human, UniProt P12318 34-217); test: SPR (Biacore), antibody captured, FcgR analyte
T4 construct: also called human FcgRIIaR; FcγRIIa (type R)
T4 chain: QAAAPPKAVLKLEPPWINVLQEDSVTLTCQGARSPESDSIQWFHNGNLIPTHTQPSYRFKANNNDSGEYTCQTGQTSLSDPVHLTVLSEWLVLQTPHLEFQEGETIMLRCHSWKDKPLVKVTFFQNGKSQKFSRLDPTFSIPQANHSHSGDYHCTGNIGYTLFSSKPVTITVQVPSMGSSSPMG

[5] = target: T5, human FcγRIIIaV extracellular domain with C-terminal His-tag (human, UniProt P08637 17-208); test: SPR (Biacore), antibody captured, FcgR analyte
T5 construct: also called human FcgRIIIaV
T5 sequence (P08637 17-208 F176V): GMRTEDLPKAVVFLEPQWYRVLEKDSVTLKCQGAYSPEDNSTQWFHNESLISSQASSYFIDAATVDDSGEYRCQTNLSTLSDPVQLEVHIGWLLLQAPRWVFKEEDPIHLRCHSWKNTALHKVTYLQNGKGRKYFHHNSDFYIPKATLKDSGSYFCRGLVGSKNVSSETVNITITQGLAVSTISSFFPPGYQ

[6] = target: T6, cynomolgus monkey FcγRIIa1 extracellular domain with C-terminal His-tag (cynomolgus monkey); test: SPR (Biacore), antibody captured, FcgR analyte
T6 construct: also called cyno FcgRIIa1; cynoFcγRIIa1
T6 chain: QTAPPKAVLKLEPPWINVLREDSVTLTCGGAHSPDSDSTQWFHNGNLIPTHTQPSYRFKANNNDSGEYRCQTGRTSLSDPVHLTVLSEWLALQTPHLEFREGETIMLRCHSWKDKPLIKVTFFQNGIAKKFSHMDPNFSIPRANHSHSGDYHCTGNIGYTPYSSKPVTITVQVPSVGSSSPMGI

B1: M103205H795-MY261/M103202L889-SK1 (antibody, human IgG1, kappa, name in EU numbering)
heavy: QVTLKESGPVLVKPTETLTLTCTVSGIDLSHDDISWVRQAPGKGLEWVGIISYAGSTYYASWAKGRLTISKDTSKNQVVLTMTNMDPVDTATYYCARGVPAYSHGGDLWGQGTLVTVSSASTKGPSVFPLAPSSKSTSGGTAALGCLVKDYFPEPVTVSWNSGALTSGVHTFPAVLQSSGLYSLSSVVTVPSSSLGTQTYICNVNHKPSNTKVDKKVEPKSCDKTHTCPPCPAPELLHGPSVFLFPPKPKDTLMISRTPEVTCVVVDVSDEDPEVKFNWYVDGVEVHNAKTKPREEQYNSTYRVVSVLTVLHQDWLNGKEYKCKVSNKALPKPIEKTISKAKGQPREPQVYTLPPSREEMTKNQVSLTCLVKGFYPSDIAVEWESNGQPENNYKTTPPVLDSDGSFFLYSKLTVDKSRWQQGNVFSCSVMHEALHNHYTQKSLSLSP
light: DIVMTQSPATLSLSPGERATLSCTSSQSVYHANWLSWFQQKPGQPPKLLIYWASTLAYGVPSRFSGSGSGTDFTLTISSLQPEDAATYYCAGGYGGGRYAFGQGTKVEIKRTVAAPSVFIFPPSDEQLKSGTASVVCLLNNFYPREAKVQWKVDNALQSGNSQESVTEQDSKDSTYSLSSTLTLSKADYEKHKVYACEVTHQGLSSPVTKSFNRGEC
notes: Asn at EU 236 of MY201 replaced with His
In the case of B1, the Kd [1] is reported as 53 nM, the Kd [2] is reported as 2400 nM and the Kd [3] is reported as 55000 nM.

B2: M103205H795-MY453/M103202L889-SK1 (antibody, human IgG1, kappa)
heavy: QVTLKESGPVLVKPTETLTLTCTVSGIDLSHDDISWVRQAPGKGLEWVGIISYAGSTYYASWAKGRLTISKDTSKNQVVLTMTNMDPVDTATYYCARGVPAYSHGGDLWGQGTLVTVSSASTKGPSVFPLAPSSKSTSGGTAALGCLVKDYFPEPVTVSWNSGALTSGVHTFPAVLQSSGLYSLSSVVTVPSSSLGTQTYICNVNHKPSNTKVDKKVEPKSCDKTHTCPPCPARELLTGPSVFLFPPKPKDTLMISRTPEVTCVVVDVSDEDPEVKFNWYVDGVEVHNAKTKPREEQYNSTYRVVSVLTVLHQDWLNGKEYKCKVSNKALPKPIEKTISKAKGQPREPQVYTLPPSREEMTKNQVSLTCLVKGFYPSDIAVEWESNGQPENNYKTTPPVLDSDGSFFLYSKLTVDKSRWQQGNVFSCSVMHEALHNHYTQKSLSLSP
light: DIVMTQSPATLSLSPGERATLSCTSSQSVYHANWLSWFQQKPGQPPKLLIYWASTLAYGVPSRFSGSGSGTDFTLTISSLQPEDAATYYCAGGYGGGRYAFGQGTKVEIKRTVAAPSVFIFPPSDEQLKSGTASVVCLLNNFYPREAKVQWKVDNALQSGNSQESVTEQDSKDSTYSLSSTLTLSKADYEKHKVYACEVTHQGLSSPVTKSFNRGEC
notes: Substitutions in EU numbering on SG1
B2 gave a Kd [4] of 16 nM, a Kd [5] of 1400 nM and a Kd [6] of 6200 nM.
